Data on 13 molecules can be found in patent US20230287046A1, “MOLECULES TARGETING PROTEINS” (AELIN THERAPEUTICS, priority 2020, published 2023).

Experiment [1] concerns the target T1, mCherry-tagged KRAS G12V in HeLa cells (Homo sapiens, UniProt P01116, G12V).
T1 construct: expressed in transfected cells; host or cells: HeLa cells transduced with lentiviral particles
Kind of experiment: Cellular fluorescent imaging in HeLa cells overexpressing mCherry-tagged KRAS G12V. Particulars: 75 min after treatment. Format: cell-based. How it is done: Fluorescent cellular imaging was performed using HeLa cells that were transduced with lentiviral particles carrying a construct expressing KRAS G12V labeled N-terminally with mCherry. Cells were seeded in a black Gclear® Cellstar® F-bottom 96-well plates (Greiner) in 100 μL full growth medium. […] Next, cells were fixed, washed and counterstained with the nuclear dye NucBlue™ (containing Hoechst 33342). Images were captured on a Leica confocal microscope.
To complement the co-immunoprecipitation approach, we also used a cellular imaging approach to show target engagement. To this end, we generated a HeLa cell line overexpressing mCherry-tagged KRAS G12V and FITC-labelled versions of the RAS-targeting pept-ins.

Experiment [2] concerns NCI-H441 spheroid cultures. Kind of experiment: Single-dose viability screen on NCI-H441 suspension spheroid cultures (3D, CellTiter Glo 3D). Format: cell-based, human. The note with it: NCI-H441 spheroids, single dose 25 μM, 5 days. The procedure:
For the single-dose viability screen on spheroid cultures, 1000 cells were seeded per well in black Ultra-Low Attachment (ULA) round-bottom 96-well plates (Corning) in 75 μL full growth medium. The day after seeding, spheroids were treated by addition of 50 μl of full growth medium containing the indicated test compounds so that the final concentration after adding was 25 μM. Technical duplicates were included for all experimental pept-in conditions 5 days after treatment viability was assessed using the CellTiter Glo 3D reagent (Promega) according to the manufacturer's instructions, with the following adaptation: 80 μL of reagent was added per well. Readout was performed on a Clariostar plate reader (BMG). […]
As previous reports have shown that adherent growth of KRAS mutant cells lines might attenuate their sensitivity to KRAS inhibition or knockdown (Fujita-Sato et al. Cancer Res. 2015, vol. 75, 2851-62; Patricelli et al. Cancer Discov. 2016, vol. 6, 316-29; Vartanian et al. J Biol Chem. 2013, vol. 288, 2403-13), we complemented the screen on adherently growing NCI-H441 cells with a screen on suspension spheroid cultures of the same cell line. […] Viability of the spheroid cultures was determined after 5 days of exposure using the CellTiter Glo 3D reagent from Promega. […]
In general terms: Cellular ATP, detected with luciferase, serves as a proxy for viable cell number.

A further experiment concerns the target T2, G12V mutant KRAS (Homo sapiens, UniProt P01116, G12V).
T2 construct: made in house; host or cells: cell-free: PURExpress In Vitro Protein Synthesis Kit (New England Biolabs)
Kind of experiment: In vitro translation assay with streptavidin pull-down, KRAS G12V. Format: binding. Particulars: 10 μM biotinylated pept-in, Western blot. How it is done: (§1) In vitro translation assays were performed using the PURExpress® In Vitro Protein Synthesis Kit (New England Biolabs) according to the manufacturer's instructions. Briefly, linear DNA fragments containing T7 promotor and terminator sequences flanking the KRAS coding sequence were generated using PCR and purified using the MinElute PCR Purification Kit (Qiagen). 250 ng of linear DNA was subsequently used for the in vitro translation reaction, which was performed for 2 hours at 37° C. with shaking (1000 rpm). Indicated biotinylated pept-ins were mixed in the translation reactions from a 5 mM stock solution in 6M Urea to a final concentration of 10 μM. Upon completion of the translation reaction, biotinylated pept-ins were captured from the reaction mix using Streptavidin coated beads (Pierce) during 90 min at room temperature. Beads were next washed with TBS containing 0.1% Tween 20 and bound proteins were finally boiled off in 1×SDS loading dye (Bio-Rad) in TBS buffer. Proteins were resolved using Any kD 15-well Mini-PROTEAN gels (Bio-Rad) during SDS-PAGE and probed for KRAS after Western blotting using a mouse monoclonal KRAS-specific antibody (SC-30, Santa Cruz Biotechnology), which was detected with an HRP-coupled anti-mouse secondary antibody using chemiluminescence on a Bio-Rad Chemidoc MP imaging instrument.
To mimic this in vitro, we devised an in vitro translation setup producing either wild-type or mutant KRAS (G12V, G12C, G12D or G13D) in the presence of biotinylated RAS-targeting pept-ins. This allowed us to perform a streptavidin pull-down to capture the biotinylated pept-ins from the translation reaction and perform SDS-PAGE and Western blotting to probe the pulled-down fraction for the presence of KRAS. The biotinylated version of pept-in 04-004-N001, i.e. 04-004-N011, which harbours an APR window sequence derived from a wild-type APR, is predicted to target all RAS proteins independently from their mutation status.

The target in another experiment is T3, KRAS G12D mutant (Homo sapiens, UniProt P01116, G12D).
T3 construct: made in house; host or cells: cell-free: PURExpress In Vitro Protein Synthesis Kit (New England Biolabs)
The experiment is described as follows: In vitro translation assay with streptavidin pull-down, KRAS G12D. Format: binding. The note with it: 10 μM biotinylated pept-in, Western blot. The procedure: as §1, with “instrument. […]” for “instrument.”
Background: Immunoblotting shows a protein as a band on a membrane.

The next experiment concerns the target T4, G12C mutant KRAS (Homo sapiens, UniProt P01116, G12C).
T4 construct: made in house; host or cells: cell-free: PURExpress In Vitro Protein Synthesis Kit (New England Biolabs)
The experiment is described as follows: In vitro translation assay with streptavidin pull-down, KRAS G12C. Format: binding. Particulars: 10 μM biotinylated pept-in, Western blot. The procedure:
as §1, with “instrument. […]” for “instrument.”

In the next experiment the target is T5, KRAS G13D mutant (Homo sapiens, UniProt P01116, G13D).
T5 construct: made in house; host or cells: cell-free: PURExpress In Vitro Protein Synthesis Kit (New England Biolabs)
Kind of experiment: In vitro translation assay with streptavidin pull-down, KRAS G13D. The class given is binding. The note with it: 10 μM biotinylated pept-in, Western blot. How it is done: as §1, with “instrument. […]” for “instrument.”

The test system of experiment [3] is SW620 human KRAS G12V colorectal cancer xenograft. The experiment is described as follows: In vivo SW620 xenograft model. Particulars: three times per week. More on the design: species or system mouse. The procedure:
Female NCr nu/nu mice (8 to 12 weeks) were inoculated with 1×10^6 SW620 tumor cells in 50% Matrigel subcutaneously in the hind flank. The cell Injection Volume was 0.1 mL/mouse. When tumors reached an average size of 100-150 mm^3 a pair match was performed, and treatment started. Group sizes were N=6 for the non-treated group, N=5 for the vehicle groups and N=8 for the pept-in and positive control groups. Tumor growth was monitored by caliper measurement twice per week. Model response was monitored by Irinotecan dosed once per week at 100 mg/kg intraperitoneally for 3 weeks.
To assess whether the RAS-targeting pept-ins are able to attenuate growth of KRAS G12V-driven tumors in vivo, a subcutaneous xenograft model of human KRAS G12V colorectal cancer (SW620) was used. Once the tumors reached 100-150 mm^3 in size, pept-ins were administered directly into the tumor mass by intratumoral injection three times per week during two weeks at two different doses (20 μg and 200 μg).

For experiment [4], the target named is T6, KRAS of NCI-H441 lung adenocarcinoma cells (KRAS G12V mutant) (human, UniProt P01116 1-186). Kind of experiment: cell-based or functional assay.
The target in experiment [5] is T6, KRAS of NCI-H441 lung adenocarcinoma …. The experiment is described as follows: cell-based or functional assay. The source holds these as a separate data set.

Where no end group is shown, it is not given here.

Consider “04-015-N032: RAS-targeting FITC-labelled version of pept-in 04-015-N001 (KVVVGAVGKGSKVVVGAVGK; also: FITC-labelled version of 04-015-N001)”, for which the “association with mCherry-labelled KRAS” value in experiment [1] is given as “associates with mCherry-labelled KRAS”.
As to “Ac-KLVVVGAVKGSKLVVVGAVK-NH2 [04-014-N001]”, the “activity in the spheroid setting” value in [2] is listed as “did not display activity”.
Take “04-006-N007: biotinylated version of a biologically active pept-in harbouring an APR window containing the G12V mutant site (04-006 series) (KVVVGAVKGSKVVVGAVK; also: biotinylated version)”: the “pull-down of KRAS G12V” value with G12V mutant KRAS is “notable pull-down was only observed for the G12V mutant KRAS”.
Still for that read-out and setting: as for “04-033-N003: biotinylated version of a biologically active pept-in harbouring an APR window containing the G12V mutant site (04-033 series) (KVVVGAVGVGKGSKVVVGAVGVGK; also: biotinylated version)”, the entry is “notable pull-down was only observed for the G12V mutant KRAS”.
With “04-004-N011: biotinylated version of pept-in 04-004-N001 (KLSVFAIKGSKLSVFAIK; also: biotinylated version of 04-004-N001)”, the “binding to KRAS G12D” value in the experiment with KRAS G12D mutant was “less efficient”. Moreover, the “pull-down of KRAS G12C” value with G12C mutant KRAS is given as “efficient pull-down”. In addition, in the experiment with G12V mutant KRAS, the “pull-down of KRAS G12V” value is “efficient pull-down”. In addition, the “binding to KRAS G13D” value with KRAS G13D mutant is “less efficient”.
In the case of `CC(=O)N[C@@H](CCCCN)C(=O)N[C@H](C(=O)N[C@H](C(=O)N[C@H](C(=O)NCC(=O)N[C@@H](C)C(=O)N[C@H](C(=O)NCC(=O)N[C@@H](CCCCN)C(=O)NCC(=O)N[C@@H](CO)C(=O)N[C@@H](CCCCN)C(=O)N[C@H](C(=O)N[C@H](C(=O)N[C@H](C(=O)NCC(=O)N[C@@H](C)C(=O)N[C@H](C(=O)NCC(=O)N[C@@H](CCCCN)C(N)=O)C(C)C)C(C)C)C(C)C)C(C)C)C(C)C)C(C)C)C(C)C)C(C)C` [04-015-N001], the “reduction in average tumor volume at day 22” value in [3] (20 μg intratumoral) and in experiment [3] (200 μg intratumoral) was “significant reduction in average tumor volume” each time.
On to “04-015-N026: biotinylated version of a biologically active pept-in harbouring an APR window containing the G12V mutant site (04-015 series) (KVVVGAVGKGSKVVVGAVGK; also: biotinylated version)”, for which, in the experiment with G12C mutant KRAS, the “pull-down of KRAS G12C” value is listed as “notable pull-down”. Besides, the “pull-down of KRAS G12V” value with G12V mutant KRAS is “notable pull-down”.
Ac-KLSVFAIKGSKLSVFAIK-NH2 [04-004-N001]: the “reduction in average tumor volume at day 22” value in [3] (20 μg intratumoral) and in experiment [3] (200 μg intratumoral) was “only significant for the 200 μg dosing group” each time.

B1: 04-004-N001 (peptide)
peptide: Ac-KLSVFAIKGSKLSVFAIK-NH2
Consider B1, for which the “IC50 on viability of adherently growing NCI-H441 cells (CellTiter Glo, 3 days)” value (shortened to “IC50 on viability”) in experiment [4] was approximately 10 µM. Besides, the “Normalized viability NCI-H441 4 days of exposure to 25 µM (%)” value (“Normalized viability NCI-H441 4 days … (%)” for short) in experiment [5] stood at 6.1%.

B2: 04-014-N001 (peptide)
peptide: Ac-KLVVVGAVKGSKLVVVGAVK-NH2
B2: the “IC50 on viability” value in experiment [4] was approximately 10 µM. Moreover, the “Normalized viability NCI-H441 4 days … (%)” value in experiment [5] worked out at 9.1%.

B3: 04-006-N001 (peptide)
peptide: Ac-KVVVGAVKGSKVVVGAVK-NH2
B3: the “IC50 on viability” value in experiment [4] is approximately 10 µM. Moreover, the “Normalized viability NCI-H441 4 days … (%)” value in experiment [5] was 8.7%.

B4: 04-015-N001 (peptide)
peptide: Ac-KVVVGAVGKGSKVVVGAVGK-NH2
Consider B4, for which the “IC50 on viability” value in experiment [4] was approximately 10 µM. Moreover, the “Normalized viability NCI-H441 4 days … (%)” value in experiment [5] was found to be 23.3%.

B5: 04-033-N001 (peptide)
peptide: Ac-KVVVGAVGVGKGSKVVVGAVGVGK-NH2
For B5, the “IC50 on viability” value in experiment [4] was approximately 10 µM. In addition, the “Normalized viability NCI-H441 4 days … (%)” value in experiment [5] amounted to 5.2%.
